Measurements published in doi:10.1101/2021.02.16.431366, “Functional basis for calmodulation of the TRPV5 calcium channel” (bioRxiv, 2021).
Where no end group is shown, it is not given here.

Columns and labels:
[1] = target: the molecule itself; assay: single molecule photobleaching counting (smPB, TIRF microscopy); living HEK293 cells with low expression; bleaching steps of confined spots at the cell surface counted and fitted to a binomial distribution (eGFP folding probability 72%); CaM-eGFP counted in spots positive for mCherry-TRPV5, in presence and absence of extracellular Ca2+
CaM agarose resin = target: T1, CaM agarose resin (UniProt P62157 1-149); assay: pull-down; competition: 0-100 µM TRPV5 peptide added to the CaM agarose pull-down of GFP-TRPV5 lysate; TRPV5 band semi-quantified and fitted (non-linear sigmoidal) against log peptide concentration; Ca2+ concentration not stated; conditions: both partners purified
T1 construct: calmodulin coupled to agarose; Immobilised on agarose by the supplier; source: bought: Sigma Aldrich (CaM agarose resin)

Row | Binder | stoichiometry N [1] | IC50 (CaM agarose resin) [µM]
1 | GFP-TRPV5 (natural protein, rabbit, UniProt Q9XSM3 1-730, looked up, TRPV5, rabbit, cloned into a pcDNA5 vector with an N-terminal GFP tag; also called eGFP-TRPV5; source: HEK293, transfected, in lysate; in living cells for single molecule photobleaching; not shown: GFP, N-terminal, kept) MGACPPKAKGPWAQLQKLLISWPVGEQDWEQYRDRVNMLQQERIRDSPLLQAAKENDLRLLKILLLNQSCDFQQRGAVGETALHVAALYDNLEAATLLMEAAPELAKEPALCEPFVGQTALHIAVMNQNLNLVRALLARGASVSARATGAAFRRSPHNLIYYGEHPLSFAACVGSEEIVRLLIEHGADIRAQDSLGNTVLHILILQPNKTFACQMYNLLLSYDEHSDHLQSLELVPNHQGLTPFKLAGVEGNTVMFQHLMQKRKHVQWTCGPLTSTLYDLTEIDSWGEELSFLELVVSSKKREARQILEQTPVKELVSFKWKKYGRPYFCVLASLYILYMICFTTCCIYRPLKLRDDNRTDPRDITILQQKLLQEAYVTHQDNIRLVGELVTVTGAVIILLLEIPDIFRVGASRYFGQTILGGPFHVIIITYASLVLLTMVMRLTNMNGEVVPLSFALVLGWCSVMYFARGFQMLGPFTIMIQKMIFGDLMRFCWLMAVVILGFASAFHITFQTEDPNNLGEFSDYPTALFSTFELFLTIIDGPANYSVDLPFMYCITYAAFAIIATLLMLNLFIAMMGDTHWRVAQERDELWRAQVVATTVMLERKMPRFLWPRSGICGYEYGLGDRWFLRVENHHDQNPLRVLRYVEAFKCSDKEDGQEQLSEKRPSTVESGMLSRASVAFQTPSLSRTTSQSSNSHRGWEILRRNTLGHLNLGLDLGEGDGEEVYHF | 4 | –
2 | {Biotin‑C6}-QSSNSHRGWEILRRNTLGHL (TRPV5 distal C-terminal helix; the limits are counted from W702, the residue changed in the printed W702A peptide; also called distal peptide; distal TRPV5 peptide; source: synthetic peptide, bought: EMC microcollections GmbH) [TRPV5 distal helix peptide] | – | 5.2
